Results: publication doi:10.1101/2021.03.26.437179 (bioRxiv, 2021)

Experiments:
Assay in all cases: pull-down
GST-PUB26 = molecular target: T1, GST-PUB26 (Arabidopsis thaliana, UniProt Q9FXA4 1-421)
T1 sequence (looked up): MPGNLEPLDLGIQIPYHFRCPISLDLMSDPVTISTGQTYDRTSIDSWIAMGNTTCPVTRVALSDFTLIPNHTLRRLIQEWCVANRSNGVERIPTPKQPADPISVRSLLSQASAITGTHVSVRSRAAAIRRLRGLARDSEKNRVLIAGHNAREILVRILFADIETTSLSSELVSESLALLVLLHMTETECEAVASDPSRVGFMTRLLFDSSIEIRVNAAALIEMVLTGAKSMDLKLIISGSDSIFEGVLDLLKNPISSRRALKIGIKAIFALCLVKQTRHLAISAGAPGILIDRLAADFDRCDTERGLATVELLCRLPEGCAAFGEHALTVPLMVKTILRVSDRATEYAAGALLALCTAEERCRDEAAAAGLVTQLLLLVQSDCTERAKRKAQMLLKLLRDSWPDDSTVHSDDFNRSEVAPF

GST-PUB25 = molecular target: T2, GST-PUB25 (Arabidopsis thaliana, UniProt Q9LT79 1-421)
T2 sequence (looked up): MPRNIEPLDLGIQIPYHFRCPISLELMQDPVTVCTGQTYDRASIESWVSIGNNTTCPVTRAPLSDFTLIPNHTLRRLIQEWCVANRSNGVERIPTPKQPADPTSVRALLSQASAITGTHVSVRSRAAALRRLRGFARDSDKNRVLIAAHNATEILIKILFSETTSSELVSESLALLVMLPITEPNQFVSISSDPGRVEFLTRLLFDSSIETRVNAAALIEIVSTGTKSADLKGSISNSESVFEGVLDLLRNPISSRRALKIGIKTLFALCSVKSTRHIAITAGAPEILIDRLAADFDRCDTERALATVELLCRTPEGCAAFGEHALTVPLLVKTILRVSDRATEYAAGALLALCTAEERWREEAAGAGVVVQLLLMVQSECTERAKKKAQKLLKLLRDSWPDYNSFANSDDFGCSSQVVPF

HIS-PUB26 = molecular target: T3, HIS-PUB26 (Arabidopsis thaliana, UniProt Q9FXA4 1-421)
T3 sequence (looked up): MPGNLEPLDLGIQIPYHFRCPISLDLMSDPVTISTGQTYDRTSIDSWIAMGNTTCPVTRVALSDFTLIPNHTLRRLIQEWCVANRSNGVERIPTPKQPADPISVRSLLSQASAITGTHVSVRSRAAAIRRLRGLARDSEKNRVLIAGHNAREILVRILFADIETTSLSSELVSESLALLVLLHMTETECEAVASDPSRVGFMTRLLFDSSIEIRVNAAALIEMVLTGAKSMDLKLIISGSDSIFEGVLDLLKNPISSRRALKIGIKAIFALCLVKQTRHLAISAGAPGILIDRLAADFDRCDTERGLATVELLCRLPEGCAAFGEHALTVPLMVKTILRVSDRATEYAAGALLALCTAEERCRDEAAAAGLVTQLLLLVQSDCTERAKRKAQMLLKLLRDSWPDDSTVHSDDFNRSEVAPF

Measured: binding result

B1: MBP-MYB6 (natural protein, Arabidopsis thaliana, UniProt Q38851 1-236, looked up)
chain: MGRSPCCEKAHTNKGAWTKEEDQRLVDYIRNHGEGCWRSLPKSAGLLRCGKSCRLRWINYLRPDLKRGNFTDDEDQIIIKLHSLLGNKWSLIAGRLPGRTDNEIKNYWNTHIKRKLLSHGIDPQTHRQINESKTVSSQVVVPIQNDAVEYSFSNLAVKPKTENSSDNGASTSGTTTDEDLRQNGECYYSDNSGHIKLNLDLTLGFGSWSGRIVGVGSSADSKPWCDPVMEARLSLL
binds: GST-PUB26 | GST-PUB25 | HIS-PUB26
